Test results as given in patent US7638490B2, “Methods of affecting feeding and weight in mammals by administration of relaxin-3” (priority 2004, dated 2009).

T1: SALPR (Homo sapiens, UniProt Q9NSD7)
T1 construct: expressed in transfected cells; host or cells: SE302 cells (HEK293 clone carrying a CRE-VIP promoter PLAP reporter), transduced with retrovirus vector pBabeCL(SALPR)IH and selected with hygromycin
T1 sequence (Q9NSD7 1-469): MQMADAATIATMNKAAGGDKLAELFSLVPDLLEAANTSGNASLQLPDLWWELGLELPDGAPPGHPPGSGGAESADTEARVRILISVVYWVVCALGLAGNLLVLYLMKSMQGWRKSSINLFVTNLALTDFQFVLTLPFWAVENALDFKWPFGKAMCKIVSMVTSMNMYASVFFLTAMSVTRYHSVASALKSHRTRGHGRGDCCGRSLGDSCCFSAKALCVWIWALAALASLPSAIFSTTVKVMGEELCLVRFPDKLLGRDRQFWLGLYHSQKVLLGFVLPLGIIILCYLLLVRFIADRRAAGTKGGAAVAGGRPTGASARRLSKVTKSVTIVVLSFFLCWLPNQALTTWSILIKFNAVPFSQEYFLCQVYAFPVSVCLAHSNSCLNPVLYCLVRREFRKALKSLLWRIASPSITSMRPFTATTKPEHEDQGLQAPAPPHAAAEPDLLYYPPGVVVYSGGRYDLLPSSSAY


Legend:
SALPR [1] = target: T1, SALPR; assay: Suppression of forskolin-increased transcription activity (CRE-PLAP reporter) in SALPR-SE302 cells; assay type: cell-based; conditions: forskolin 1 μmol/L, 1 day incubation, alkaline phosphatase reporter
Protocol: On the following day, relaxin-3 (Phoenix Pharmaceuticals) or insulin (Invitrogen) diluted with an assay medium (DMEM supplemented with 0.1% bovine serum albumin) in specified concentrations was added, after which forskolin (Calbiochem) was added to make a final concentration of 1 μmol/L. After 1 day incubation, 15 μl each of the cell supernatant was recovered and then transferred to a 96-well plate for chemiluminescence measurement (Sumitomo Bakelite), 60 μl of buffer solution for assay (280 mmol/L Na2CO3—NaHCO3, 8 mmol/L MgSO4, pH 10) and 70 μl of Lumiphos530 (Lumigen) were added and the reaction was carried out at room temperature for 1 hour, after which chemiluminescence for each well was measured by a fusion plate reader (Perkin Elmer) to assess the transcription activity.

[2] = Body weight gain and amount of feeding under chronic intracerebroventricular administration; assay type: in vivo, rat; conditions: Wistar male rats, chronic icv by osmotic pump, 100 μmol/L at 6 μl/day
Protocol: A relaxin-3 solution was prepared by dissolving relaxin-3 (Peptide Institute, Inc.) in physiological saline at a concentration of 100 μmol/L. A vehicle solution (physiological saline) or the relaxin-3 solution was poured into an osmotic pump (Alzet osmotic pump model 1002 (DURECT); delivering 6 μl/day), a tube and a cannula for administration, after which they were connected together. Wistar male rats (6 weeks of age; Japan Charles River) were fed feed for experimental animals (MF; Oriental Yeast) and adapted to individual cages for 4 days. Under anesthesia, a guide cannula was inserted into the lateral cerebroventricle of these rats (250-270 g) and an osmotic pump was implanted under the skin. The rats had free access to feed and their body weight and feeding were measured every morning. Further, the decrease in the amount of feed per day is shown as the amount of feeding (FIG. 8).

[3] = Blood leptin concentration after single intracerebroventricular administration; assay type: in vivo, rat; conditions: rats, single icv administration, about 3 hours after administration, vs vehicle, t-test p<0.05
Protocol: The above-mentioned rats were anesthetized with Nembutal after the feeding measurement (about 3 hours after administration) and the blood was taken from the abdominal aorta. The blood taken was centrifuged at 1,750×g for 15 minutes and the resulting supernatant was stored at −80° C. Later, the amount of leptin in the supernatant was quantitatively determined by a rat leptin quantification ELISA kit (Amersham Bioscience).

[4] = Amount of feeding after single intracerebroventricular administration; assay type: in vivo; conditions: Wistar male rats, single icv, about 50 pmol/rat, 2 hours after administration, vs vehicle, t-test p<0.01
Protocol: Wistar male rats (7 weeks of age; Japan Charles River) were fed feed for experimental animals (MF; Oriental Yeast) to be adapted. The rats (250 to 300 g) received cannulation into the lateral cerebroventricle under anesthesia. Administration experiments were carried out a week or later. Relaxin-3 (60 μg; Phoenix Pharmaceuticals) was dissolved in DMSO and added with an artificial cerebrospinal fluid to make a final concentration of 200 μmol/L. The deposited precipitate was removed by centrifugation and the resulting supernatant was used as a relaxin-3 administration solution. The amount of administration (relaxin-3 concentration in the administration solution) was about 50 pmol/rat when calculated using the standard curve with relaxin-3 in the experimental system shown in Example 7. Rats with guide cannula implantation were divided into 2 groups (6 animals per group) and administered with the relaxin-3 administration solution or a vehicle solution (a solution having the same composition as (2) above without relaxin-3) at a rate of 5 μl/2 minutes using an infusion pump. Immediately after the intracerebroventricular administration of the administration solution, rats were put in a cage where pre-weighed feed was placed and fed ad libitum. The amount of feeding was calculated by measuring the decrease in feed 2 hours later.

[5] = Body weight gain under chronic intracerebroventricular administration (locomotor study); assay type: in vivo, rat; conditions: Wistar male rats (5 weeks of age), chronic icv by osmotic pump, from day 1 after administration
Protocol: A relaxin-3 solution was prepared by dissolving relaxin-3 (Peptide Institute, Inc.) in physiological saline at a concentration of 100 μmol/L. A vehicle solution (physiological saline) or the relaxin-3 solution was poured into an osmotic pump (Alzet osmotic pump model 1002 (DURECT), delivering at 6 μ/day), a tube and a cannula for administration, after which they were connected together. Wistar male rats (5 weeks of age; Japan Charles River) were fed feed for experimental animals (MF; Oriental Yeast) and adapted to individual cages for 5 days. Under anesthesia, a guide cannula was inserted into the lateral cerebroventricle of these rats (170-200 g) and an osmotic pump was implanted under the skin. The operation date was set to be day 0. The rats had free access to feed and water and the body weight was measured every morning, except on days for locomotor activity measurement (FIG. 11).

SALPR [6] = target: T1, SALPR; assay: Screening for relaxin-3 antagonistic substance using SALPR-SE302 cells (CRE-PLAP reporter); assay type: cell-based; conditions: 3 μmol/L forskolin, relaxin-3 at 3 nmol/L
[7] = Spontaneous locomotor activity under chronic intracerebroventricular administration; assay type: in vivo, rat; conditions: rats, chronic icv; light phase days 2 and 7, dark phase days 3 and 8
Protocol: Spontaneous locomotor activity was measured using a Versamax system (Accuscan) in the light phase and dark phase on days when significant difference in body weight increasing activity in the rats receiving relaxin-3 administration was recognized.

[8] = Epididymal fat weight, blood leptin and blood insulin after chronic intracerebroventricular administration; assay type: in vivo, rat; conditions: rats, chronic icv administration, day 14, vs vehicle
Protocol: After measuring body weight and the amount of feed on the last day of the experiment (day 14), the rats were anesthetized with Nembutal, epididymal fat was taken and the total fat weight was measured (FIG. 9). Further, the blood was taken from the abdominal aorta. The blood was centrifuged at 1,750×g for 15 minutes and the resulting supernatant was stored at −80° C. Later, the amount of leptin in the supernatant was quantitatively determined by a rat leptin measuring kit (L) (IBL) (FIG. 10A). Further, the amount of insulin in the supernatant was quantitatively determined by an ultra sensitive rat insulin measuring kit (Morinaga Institute of Biological Science) (FIG. 10B).

Molecule | effect on increase in transcription activity by forskolin (SALPR [1]) | amount of feeding ([2]; from day 1) | body weight increase ([2]; from day 1 after operation) | blood leptin concentration [3] | amount of feeding [4] | body weight increase [5] | effect on increase in transcription activity by forskolin (SALPR [6]) | spontaneous locomotor activity (total for 90 minutes) [7] | amount of epididymal fat [8] | insulin concentration in blood [8] | leptin concentration in blood [8]
insulin: related peptide (Invitrogen) used as specificity control in the SALPR reporter test [reference compound] | not affected | – | – | – | – | – | – | – | – | – | –
relaxin-3: polypeptide called relaxin-3 (INSL7) comprising the amino acid sequence of SEQ ID NO: 2; natural ligand of SALPR (protein, listed as Homo sapiens) MARYMLLLLLAVWVLTGELWPGAEARAAPYGVRLCGREFIRAVIFTCGGSRWRRSDILAHEAMGDTFPDADADEDSLAGELDEAMGSSEWLALTKSPQAFYRGRPSWQGTPGVLRGSRDVLAGLSSSCCKWGCSKSEISSLC | suppressed via SALPR activation the increase in transcription activity by forskolin | significant increase in the amount of feeding | significant increase in body weight | significantly increased | significantly increased | significant increase in body weight | suppressed the increase in transcription activity by forskolin | No significant change in locomotor activity | significantly increased | significantly increased | significantly increased
